We go through eight molecules from paper PMC7969032, “Tandem RNA binding sites induce self-association of the stress granule marker protein TIA-1”.

Data set [1] concerns the target T1, TIA-1 full length (short isoform, p40) (human, UniProt P31483-2 1-375).
T1 sequence: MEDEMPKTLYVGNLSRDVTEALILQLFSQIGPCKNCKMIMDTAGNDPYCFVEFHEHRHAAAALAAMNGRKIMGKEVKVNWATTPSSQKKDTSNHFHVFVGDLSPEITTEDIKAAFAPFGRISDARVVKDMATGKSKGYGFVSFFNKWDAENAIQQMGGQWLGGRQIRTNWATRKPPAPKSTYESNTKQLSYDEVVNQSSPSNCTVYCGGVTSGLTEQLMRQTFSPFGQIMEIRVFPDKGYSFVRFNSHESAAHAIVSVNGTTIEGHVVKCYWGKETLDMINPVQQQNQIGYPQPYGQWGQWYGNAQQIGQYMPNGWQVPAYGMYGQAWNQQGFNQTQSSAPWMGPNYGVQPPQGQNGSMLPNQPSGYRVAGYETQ
The data set is described as follows: SAXS; 500 mM arginine; SASDJL5; FA: 1 nM Fl-TC1; RRM23 in 10 mM HEPES pH 7.2, 50 mM NaCl, 1 mM DTT (legend: 20 mM HEPES); full-length TIA-1 in 20 mM sodium phosphate, 60 mM KCl, 0.5 M arginine-HCl, 1 mM MgCl2, 2 mM DTT, 0.5 mM EDTA, pH 7; Csat at room temperature. To be noted: protein: recombinant; tags: His-tag removed by TEV (untagged).

The target in data set [2] is T1, TIA-1 full length (short isoform, p40). The data set can be described thus: co-sedimentation with condensed phase (PAGE); 4:1 TIA-1:TC site, 10 uM TIA-1; FA: 1 nM Fl-TC1; RRM23 in 10 mM HEPES pH 7.2, 50 mM NaCl, 1 mM DTT (legend: 20 mM HEPES); full-length TIA-1 in 20 mM sodium phosphate, 60 mM KCl, 0.5 M arginine-HCl, 1 mM MgCl2, 2 mM DTT, 0.5 mM EDTA, pH 7; Csat at room temperature. To be noted: protein: recombinant; tags: His-tag removed by TEV (untagged).

The target is the same in data set [3]. The data set is described as follows: fluorescence anisotropy; 0.5 M arginine-HCl, 60 mM KCl, 1 mM MgCl2; KD not in text; FA: 1 nM Fl-TC1; RRM23 in 10 mM HEPES pH 7.2, 50 mM NaCl, 1 mM DTT (legend: 20 mM HEPES); full-length TIA-1 in 20 mM sodium phosphate, 60 mM KCl, 0.5 M arginine-HCl, 1 mM MgCl2, 2 mM DTT, 0.5 mM EDTA, pH 7; Csat at room temperature. To be noted: protein: recombinant; tags: His-tag removed by TEV (untagged); label: 5'-fluorescein. On the technique in general: Polarisation of emitted light reports the rotation of a fluorescent probe.

The target is the same in data set [4]. The data set can be described thus: SAXS; 500 mM arginine; SASDJK5; FA: 1 nM Fl-TC1; RRM23 in 10 mM HEPES pH 7.2, 50 mM NaCl, 1 mM DTT (legend: 20 mM HEPES); full-length TIA-1 in 20 mM sodium phosphate, 60 mM KCl, 0.5 M arginine-HCl, 1 mM MgCl2, 2 mM DTT, 0.5 mM EDTA, pH 7; Csat at room temperature. Conditions: protein: recombinant; tags: His-tag removed by TEV (untagged).

UUUUUACUCC (ssRNA) [UC1]: the binding result in data set [1] was “binds”.
Regarding TTTTTACTCCAATTTTTACTCC (ssDNA) [TC2], the binding result in data set [2] is “binds”.

B1: TC9 (ssDNA)
DNA: TTTTTACTCCAATTTTTACTCCAATTTTTACTCCAATTTTTACTCCAATTTTTACTCCAATTTTTACTCCAATTTTTACTCCAATTTTTACTCCAATTTTTACTCC
B1: the binding result in data set [2] is “binds”.

B2: TC7 (ssDNA)
DNA: TTTTTACTCCAATTTTTACTCCAATTTTTACTCCAATTTTTACTCCAATTTTTACTCCAATTTTTACTCCAATTTTTACTCC
On to B2, for which, in data set [2], the binding result is listed as “binds”.

B3: TC5 (ssDNA)
DNA: TTTTTACTCCAATTTTTACTCCAATTTTTACTCCAATTTTTACTCCAATTTTTACTCC
In the case of B3, the binding result in data set [2] is reported as “binds”.
In the case of TTTTTACTCC (ssDNA) [TC1 (5'-fluorescein)], the binding result in data set [3] is recorded as “binds”.
As to TTTTTACTCC (ssDNA) [TC1], the binding result in data set [4] was “binds”.
On to TTTTTACTCCAATTTTTACTCCAATTTTTACTCC (ssDNA) [TC3], for which the binding result in data set [2] is “binds”.
